Test results taken from paper PMC3490818.

Molecular target: T1, Signal peptide peptidase (human (endogenous in HEK293)), Q8TCT9
T1 chain: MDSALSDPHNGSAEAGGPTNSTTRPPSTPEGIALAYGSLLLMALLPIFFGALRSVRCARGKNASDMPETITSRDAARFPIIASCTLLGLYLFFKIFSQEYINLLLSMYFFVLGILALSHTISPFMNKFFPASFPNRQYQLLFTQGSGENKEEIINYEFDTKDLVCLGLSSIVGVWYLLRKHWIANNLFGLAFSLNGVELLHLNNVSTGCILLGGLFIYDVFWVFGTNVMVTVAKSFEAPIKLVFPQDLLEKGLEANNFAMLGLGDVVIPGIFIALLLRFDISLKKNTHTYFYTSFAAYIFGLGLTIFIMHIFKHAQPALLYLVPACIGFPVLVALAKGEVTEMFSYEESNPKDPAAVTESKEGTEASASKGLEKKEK
Assay: native gel or EMSA; BN-PAGE of HEK293 or HEK293 vigilin-FLAG lysates solubilized in 0.5% DDM, Western blot for SPP and vigilin (or FLAG); second dimension SDS-PAGE for SPP
Conditions: remark: other sources report otherwise

stoichiometry N: 2
B1: Signal peptide peptidase, Q8TCT9 1-377 (natural protein)
chain: T1 chain
